In patent publication US5328898A, “Factor XIIIA fibrin binding fragments” (Duke University, priority 1990, dated 1994):
Values belong to the substance of their own block, whether it stands above or below them. Ends that are not written are not given here.

Tests used:
[1] = target: T1, fibrin (Homo sapiens, UniProt P02671+P02675+P02679); assay: Fibrin binding of radiolabeled peptides; conditions: unbound material analyzed by reverse phase HPLC
T1 construct: the mixture was clotted by the addition of 10 U/mL of thrombin; After 10 minutes at 37° C., the fibrin was compressed
T1 sequence (P02671 36-629 limits assumed): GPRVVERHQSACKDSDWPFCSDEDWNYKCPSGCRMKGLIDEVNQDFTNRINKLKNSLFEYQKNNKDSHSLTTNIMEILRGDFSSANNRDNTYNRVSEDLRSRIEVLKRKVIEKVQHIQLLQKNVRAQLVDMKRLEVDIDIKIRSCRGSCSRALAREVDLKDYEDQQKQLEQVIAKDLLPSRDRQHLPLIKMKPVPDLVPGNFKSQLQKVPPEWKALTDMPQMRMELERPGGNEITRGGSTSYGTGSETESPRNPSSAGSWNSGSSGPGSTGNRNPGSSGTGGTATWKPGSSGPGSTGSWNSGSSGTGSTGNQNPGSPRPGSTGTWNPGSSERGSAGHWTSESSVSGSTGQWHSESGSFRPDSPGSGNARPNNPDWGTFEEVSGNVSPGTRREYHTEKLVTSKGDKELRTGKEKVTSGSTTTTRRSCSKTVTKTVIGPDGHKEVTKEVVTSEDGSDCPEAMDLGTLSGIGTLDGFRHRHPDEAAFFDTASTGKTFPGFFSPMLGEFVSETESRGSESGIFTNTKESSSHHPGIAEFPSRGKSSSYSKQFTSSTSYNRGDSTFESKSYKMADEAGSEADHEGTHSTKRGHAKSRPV
T1 sequence (P02675 45-491 limits assumed): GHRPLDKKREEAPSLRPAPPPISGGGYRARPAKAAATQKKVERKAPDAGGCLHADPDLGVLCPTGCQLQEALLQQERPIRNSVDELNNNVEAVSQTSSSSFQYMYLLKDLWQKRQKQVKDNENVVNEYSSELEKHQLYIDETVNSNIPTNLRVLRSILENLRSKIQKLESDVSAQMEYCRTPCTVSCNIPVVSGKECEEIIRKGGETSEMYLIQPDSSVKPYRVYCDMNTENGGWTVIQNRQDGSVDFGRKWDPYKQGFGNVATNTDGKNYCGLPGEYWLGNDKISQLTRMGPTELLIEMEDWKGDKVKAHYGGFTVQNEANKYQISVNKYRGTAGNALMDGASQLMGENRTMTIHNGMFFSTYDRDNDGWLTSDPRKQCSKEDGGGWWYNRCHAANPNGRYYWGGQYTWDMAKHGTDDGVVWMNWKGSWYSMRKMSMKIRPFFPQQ
T1 sequence (P02679 27-437 isoform P02679-2 limits assumed): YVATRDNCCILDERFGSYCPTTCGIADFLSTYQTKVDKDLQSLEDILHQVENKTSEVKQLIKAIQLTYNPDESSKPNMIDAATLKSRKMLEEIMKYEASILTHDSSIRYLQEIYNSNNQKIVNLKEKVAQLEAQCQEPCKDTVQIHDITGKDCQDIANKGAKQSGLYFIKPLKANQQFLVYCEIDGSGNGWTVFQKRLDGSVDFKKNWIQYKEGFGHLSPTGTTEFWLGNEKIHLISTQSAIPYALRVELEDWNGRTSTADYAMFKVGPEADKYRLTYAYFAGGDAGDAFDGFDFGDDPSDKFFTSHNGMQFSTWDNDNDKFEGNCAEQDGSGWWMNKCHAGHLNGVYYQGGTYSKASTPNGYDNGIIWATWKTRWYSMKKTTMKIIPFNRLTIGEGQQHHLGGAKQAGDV
Description: By reverse phase HPLC, peptides containing portions of the N- and C-terminal amino acid sequences of the DDAVY. . . peptide were separated from the full length DDAVY. . . peptide.
(§1) Binding of radiolabeled DDAVY. . . peptide prepared in accordance with Example 3 above was conducted in the presence of the following proteins: human albumin (Kabi), bovine serum albumin (BSA), hemoglobin, and cytochrome C. Fibrin binding was performed by incubating 0.5 mg/mL fibrinogen, 0.1% Triton X-100, 0.15M NaCl, 0.1M Tris, pH 7.4 (TBS), 10 mM CaCl2, and ^125 I-labeled DDAVY. . . peptide and the mixture was clotted by the addition of 10 U/mL of thrombin. After 10 minutes at 37° C., the fibrin was compressed by centrifugation (10-12,000 rpm for 10 minutes), washed thrice with TBS and the bound radioactivity was quantitated using a gamma Counter. Proteins were included in the binding mixture at these concentrations: hemoglobin (100 micromolar); human albumin (Kabi) (100 micromolar); and cytochrome C (500 micromolar). Fibrin concentration was approximately 1.0 micromolar.

[2] = target: T1, fibrin; assay: Inhibition of 125I-DDAVY. . . peptide binding to fibrin (competition)
Description: as §1
Purified recombinant platelet Factor XIII A-chains were used to inhibit the binding of DDAVY. . . peptide to fibrin. At a concentration of 0.4 mg/mL fibrinogen, 2.0 mg/mL of recombinant platelet Factor XIII inhibited the binding of DDAVY. . . peptide to fibrin by 76%. In another experiment, purified placental Factor XIII A-chains were used to inhibit DDAVY. . . peptide binding to fibrin. Binding was conducted in the presence of 1.0 mg/mL fibrinogen, 5 nanomoles of placental Factor XIII and approximately 0.05 nanomoles of the DDAVY. . . peptide. Under these conditions, the binding of the peptide to fibrin was inhibited by nearly 44%.
Binding of radiolabeled DDAVY. . . peptide (approximately 52 pmoles) was mixed with unlabeled DDAVY. . . peptide (approximately 34 nanomoles;=660-fold molar excess over radiolabeled peptide) and the mixture was bound to 0.1 mg/mL fibrin. Under these conditions, the binding of radiolabeled peptide was inhibited by nearly 83%. […] In these experiments and in the experiments conducted in the presence of XIII, binding values were corrected for nonspecific binding observed in the absence of thrombin and/or in the presence of XIII or unlabeled DDAVY. . . peptide alone.

[3] = tested on: Factor XIIIa; assay: Factor XIIIa-catalyzed crosslinking of fibrin II (SDS-PAGE); assay type: biochemical; conditions: human fibrinogen 0.27 mg/mL
Description: This example illustrates the effect of DDAVY. . . peptide and NKLIV. . . peptide on fibrin crosslinking by Factor XIIIa. Purified human fibrinogen (0.27 mg/mL) was mixed with increasing concentrations (56 micromolar to 280 micromolar) of the DDAVY. . . peptide and incubated for 15 minutes at 37° C. Then, calcium chloride was added in 0.1M Tris, pH7.4 containing 0.15M NaCl (Tris-buffered saline, TBS) to make the final calcium concentration equal 10 mM. The mixture was then clotted by the addition of 10 U/mL thrombin. Thrombin also served to activate the catalytic amounts of Factor XIII present in the fibrinogen preparation. The mixture was incubated for an additional 15 minutes at 37° C. and then solubilized in SDS-PAGE buffer containing 5% sodium dodecylsulfate (SDS), 4M urea, 10mM Tris, pH7.4, 1.0 mM ethylenediaminetetraacetic acid (EDTA), 1% 2-mercaptoethanol, and 0.001% bromophenol blue. The mixture was boiled for 5 minutes, cooled, and then separated by electrophoresis on a 4-15% linear gradient polyacrylamide gel (SDS-polyacrylamide gel electrophoresis, SDS-PAGE). After electrophoresis, the gel was stained using Coomassie Brilliant Blue and destained. Control incubations were conducted simultaneously that contained no peptide.
The reaction was also conducted as described for the DDAVY. . . peptide, except that NKLIV. . . peptide was substituted for the DDAVY. . . peptide. […]

Substance: GEVNDIKTRSWSYGQF [C-terminal portion of the DDAVY. . . peptide separated by HPLC]
- binding to fibrin [1]: did not bind to fibrin

Substance: KTRSWSYGQF [C-terminal portion of the DDAVY. . . peptide separated by HPLC]
- binding to fibrin [1]: did not bind to fibrin

More lines, main results first:

- binding to fibrin [1]: bound to fibrin
- inhibition of binding of radiolabeled DDAVY. . . peptide to fibrin ([2]; 1.0 mg/mL unlabeled peptide, 2.0 micrograms/mL radiolabeled peptide, 0.2 mg/mL fibrin): inhibited completely
- inhibition of binding of radiolabeled DDAVY. . . peptide to fibrin ([2]; approximately 34 nanomoles unlabeled peptide (660-fold molar excess over approximately 52 pmoles radiolabeled), 0.1 mg/mL fibrin): ~83%
Substance: DDAVYLDNEKEREEYVLNDIGVIFYGEVNDIKTRSWSYGQF-amide (DDAVYLDNEKEREEYVLNDIGVIFYGEVNDIKTRSWSYGQF-NH2) [DDAVY. . . peptide]
- inhibition of fibrin crosslinking ([3]; 280 micromolar peptide): ~50%
- concentration at which inhibition of fibrin crosslinking could be detected ([3]; 10 U/mL thrombin, 10 mM calcium): around 112 micromolar

- inhibition of the binding of DDAVY. . . peptide to fibrin ([2]; 1.0 mg/mL fibrinogen, 5 nanomoles placental Factor XIII, approximately 0.05 nanomoles DDAVY. . . peptide): ~44%
Substance: placental Factor XIII A-chains: purified placental Factor XIII A-chains

- inhibition of the binding of DDAVY. . . peptide to fibrin ([2]; 0.4 mg/mL fibrinogen, 2.0 mg/mL recombinant platelet Factor XIII): 76%
Substance: recombinant platelet Factor XIII: Purified recombinant platelet Factor XIII A-chains
